The record followed here is the supplement of paper PMC7877785.

This series is described as follows: self-splicing fitness, log relative to wild type (ln ratio); higher = more splicing; Tetrahymena group I intron in knt gene, E. coli kanamycin selection, DiMSum; sequences stand for … in CUCUCU…GGAGGGAAAAGUUAUCAGGCAUGCACCUGGUAGCUAGUCUUUAAACCAAUAGAUUGCAUCGGUUUAAAAGGCAAGACCGUCAAAUUGCGGGAAAGGGGUCAACAGCCGUUCAGUACCAAGUCUCAGGGGAAACUUUGAGAUGGCCUUGCAAAGGGUAUGGUAAUAAGCUGACGGACAUGGUCCUAACCACGCAGCCAAGUCCUAAGUCAACAGAUCUUCUGUUGAUAUGGAUGCAGUUCACAGACUAAAUGUCGGUCGGGGAAGAUGUAUUCUUCUCAUAAGAUAUAGUCGGACCUCUCCUUAAUGGGAGCUAGCGGAUGAAGUGAUGCAACACUGGAGCCGCUGGGAACUAAUUUGUAUGCGAAAGUAUAUUGAUUAGUUUUGGAGUACUCGUGGUCG
The gist of the method: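 The eight P1ex-region nucleotides of an intron in the knt kanamycin-resistance gene on pET-22b(+) were all randomised and the library put into E. coli BL21(DE3). Six replicate transformations were grown overnight at 37°C or 30°C on LB agar with or without 25 μg/mL kanamycin, together with 100 μg/mL carbenicillin, 50 μM IPTG and 0.2% rhamnose. Colonies were pooled and amplicon-sequenced on an Illumina HiSeq 2500. Fitness from DiMSum is the error-weighted combination of wild-type-normalised replicate fold changes, kanamycin over none.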

± gives the uncertainty stated by the source.

With GUGUAGCAAUAUUACGGGGU, the “self-splicing fitness (ln)” value is -3.62 ± 0.26 (30 °C) and -2.63 ± 0.34 (37 °C).
The matching figures for GUGUAGCAAUAUUACGGUAU: -2.35 ± 0.12 and -0.18 ± 0.12.
The matching figures for GUGUAGCAAUAUUACGUACA: -1.49 ± 0.2 and -1.87 ± 0.28.
The matching figures for GUGUAGCAAUAUUACGUAGU: -2.99 ± 0.18 and -1.37 ± 0.17.
As to GUGUAGCAAUAUUACGUCAA, the “self-splicing fitness (ln)” value by setting is: (30 °C) -1.16 ± 0.15; (37 °C) -1.14 ± 0.15.
On to GUGUAGCAAUAUUACGUGCA, for which the “self-splicing fitness (ln)” value runs as follows: (30 °C) -2.55 ± 0.21; (37 °C) -1.11 ± 0.26.
The matching figures for GUGUAGCAAUAUUACGUUCA: -0.405 ± 0.14 and -0.597 ± 0.13.
The matching figures for GUUAAGCAAUAUUACGAAAU: -1.41 ± 0.16 and -2.16 ± 0.24.
The corresponding values for GUUAAGCAAUAUUACGAAUC are -1.8 ± 0.29 and -0.464 ± 0.17.
For GUUAAGCAAUAUUACGACAC, the “self-splicing fitness (ln)” value by setting is: (30 °C) -0.925 ± 0.13; (37 °C) 0.479 ± 0.19.
The corresponding values for GUUAAGCAAUAUUACGACCU are -0.481 ± 0.14 and -0.37 ± 0.2.
The corresponding values for GUUAAGCAAUAUUACGAUCG are -2.08 ± 0.25 and -1.18 ± 0.22.
The corresponding values for GUUAAGCAAUAUUACGCACA are -0.425 ± 0.09 and -0.0375 ± 0.11.
With GUUAAGCAAUAUUACGCGGA, the “self-splicing fitness (ln)” value (30 °C) was -0.996 ± 0.27 and the “self-splicing fitness (ln)” value (37 °C) was -0.987 ± 0.2.
The matching figures for GUUAAGCAAUAUUACGCUAG: -1.64 ± 0.11 and 0.113 ± 0.14.
The corresponding values for GUUAAGCAAUAUUACGCUGA are -2.98 ± 0.22 and -1.4 ± 0.2.
The corresponding values for GUUAAGCAAUAUUACGCUUU are -4.08 ± 0.43 and -0.79 ± 0.22.
In the case of GUUAAGCAAUAUUACGGCAU, the “self-splicing fitness (ln)” value is -0.746 ± 0.12 (30 °C) and 0.0583 ± 0.18 (37 °C).
The matching figures for GUUAAGCAAUAUUACGGCCU: -0.808 ± 0.29 and 0.635 ± 0.44.
The corresponding values for GUUAAGCAAUAUUACGGGAC are -1.6 ± 0.17 and -0.964 ± 0.23.
As for GUUAAGCAAUAUUACGGGGC, the “self-splicing fitness (ln)” value reads like this: (30 °C) -3.5 ± 0.24; (37 °C) -2.58 ± 0.25.
The matching figures for GUUAAGCAAUAUUACGGGUU: -3.44 ± 0.3 and -2.98 ± 0.23.
The corresponding values for GUUAAGCAAUAUUACGGUAU are -1.36 ± 0.11 and -0.895 ± 0.12.
Consider GUUAAGCAAUAUUACGUACU, for which the “self-splicing fitness (ln)” value reads like this: (30 °C) -0.559 ± 0.15; (37 °C) -0.935 ± 0.14.
The corresponding values for GUUAAGCAAUAUUACGUAGG are -1.73 ± 0.1 and -1.16 ± 0.17.
The corresponding values for GUUAAGCAAUAUUACGUAUG are -2.44 ± 0.12 and -1.36 ± 0.13.
Regarding GUUAAGCAAUAUUACGUCGC, the “self-splicing fitness (ln)” value was -1.61 ± 0.21 (30 °C) and -1.83 ± 0.28 (37 °C).
The matching figures for GUUAAGCAAUAUUACGUCUU: -0.682 ± 0.09 and -0.56 ± 0.11.
The corresponding values for GUUAAGCAAUAUUACGUUGU are -3.68 ± 0.16 and -2.28 ± 0.2.
The corresponding values for GUUCAGCAAUAUUACGAACG are -2.55 ± 0.35 and -0.953 ± 0.23.
As to GUUCAGCAAUAUUACGAAGU, the “self-splicing fitness (ln)” value is, setting by setting: (30 °C) -0.606 ± 0.098; (37 °C) -0.391 ± 0.12.
The corresponding values for GUUCAGCAAUAUUACGAGAU are -2.51 ± 0.16 and -0.359 ± 0.12.
The corresponding values for GUUCAGCAAUAUUACGAGCC are -3.38 ± 0.18 and -2.48 ± 0.24.
The matching figures for GUUCAGCAAUAUUACGAGUA: -1.66 ± 0.19 and -0.65 ± 0.16.
In the case of GUUCAGCAAUAUUACGAGUC, the “self-splicing fitness (ln)” value is, setting by setting: (30 °C) -1.32 ± 0.15; (37 °C) -0.628 ± 0.17.
GUUCAGCAAUAUUACGAUUA: the “self-splicing fitness (ln)” value by setting is: (30 °C) -0.665 ± 0.12; (37 °C) -0.545 ± 0.097.
The matching figures for GUUCAGCAAUAUUACGCACG: -0.107 ± 0.22 and -0.682 ± 0.31.
The corresponding values for GUUCAGCAAUAUUACGCCUA are -0.396 ± 0.15 and 0.127 ± 0.14.
The matching figures for GUUCAGCAAUAUUACGCGGU: -1.52 ± 0.11 and -1.69 ± 0.14.
On to GUUCAGCAAUAUUACGGACG, for which the “self-splicing fitness (ln)” value runs as follows: (30 °C) -2.15 ± 0.11; (37 °C) -0.428 ± 0.11.
As to GUUCAGCAAUAUUACGGAGC, the “self-splicing fitness (ln)” value reads like this: (30 °C) -2.39 ± 0.32; (37 °C) -1.53 ± 0.42.
The matching figures for GUUCAGCAAUAUUACGGCAA: -0.436 ± 0.078 and -0.458 ± 0.1.
The matching figures for GUUCAGCAAUAUUACGGCCU: -1.02 ± 0.2 and -0.57 ± 0.24.
With GUUCAGCAAUAUUACGGGAU, the “self-splicing fitness (ln)” value reads like this: (30 °C) -2.24 ± 0.18; (37 °C) -1.58 ± 0.35.
GUUCAGCAAUAUUACGGGCA: the “self-splicing fitness (ln)” value (37 °C) is -1.11 ± 0.34.
In the case of GUUCAGCAAUAUUACGGGCG, the “self-splicing fitness (ln)” value is -1.57 ± 0.15 (30 °C) and -0.592 ± 0.15 (37 °C).
GUUCAGCAAUAUUACGGGGA: the “self-splicing fitness (ln)” value is -4.6 ± 0.46 (30 °C) and -2.56 ± 0.22 (37 °C).
In the case of GUUCAGCAAUAUUACGGUCC, the “self-splicing fitness (ln)” value is, setting by setting: (30 °C) -0.652 ± 0.19; (37 °C) 0.182 ± 0.23.
The corresponding values for GUUCAGCAAUAUUACGGUGA are -2.66 ± 0.17 and -1.08 ± 0.13.
The matching figures for GUUCAGCAAUAUUACGGUGU: -0.503 ± 0.05 and 0.262 ± 0.075.
The corresponding values for GUUCAGCAAUAUUACGUUAC are -1.98 ± 0.13 and -1 ± 0.094.
As to GUUCAGCAAUAUUACGUUGG, the “self-splicing fitness (ln)” value is -2.92 ± 0.17 (30 °C) and -1.62 ± 0.15 (37 °C).
GUUGAGCAAUAUUACGAAAG: the “self-splicing fitness (ln)” value (30 °C) was -2.93 ± 0.38 and the “self-splicing fitness (ln)” value (37 °C) turned out to be 0.317 ± 0.17.
For GUUGAGCAAUAUUACGAACG, where the note is “37 °C”, the “self-splicing fitness (ln)” value was -1.12 ± 0.35.
As to GUUGAGCAAUAUUACGACAA, the “self-splicing fitness (ln)” value (30 °C) was -2.38 ± 0.33 and the “self-splicing fitness (ln)” value (37 °C) is -2.54 ± 0.44.
For GUUGAGCAAUAUUACGACAU, the “self-splicing fitness (ln)” value was -0.358 ± 0.014 (30 °C) and -0.067 ± 0.034 (37 °C).
Consider GUUGAGCAAUAUUACGACUA, for which the “self-splicing fitness (ln)” value is, setting by setting: (30 °C) -2.4 ± 0.18; (37 °C) -2.85 ± 0.22.
For GUUGAGCAAUAUUACGAGAA, the “self-splicing fitness (ln)” value (37 °C) is -0.619 ± 0.5.
With GUUGAGCAAUAUUACGCAAA, the “self-splicing fitness (ln)” value reads like this: (30 °C) -2.73 ± 0.35; (37 °C) -0.984 ± 0.14.
The corresponding values for GUUGAGCAAUAUUACGCACU are -1.26 ± 0.15 and -0.723 ± 0.2.
The matching figures for GUUGAGCAAUAUUACGCAUA: -2.36 ± 0.24 and -1.1 ± 0.17.
With GUUGAGCAAUAUUACGCAUG, the “self-splicing fitness (ln)” value reads like this: (30 °C) -2.87 ± 0.16; (37 °C) -1.18 ± 0.16.
With GUUGAGCAAUAUUACGCCAU, the “self-splicing fitness (ln)” value (37 °C) was -1.09 ± 0.35.
The same measure, in the same setting: with GUUGAGCAAUAUUACGCCGG the figure was 0.442 ± 0.29.
Turning to GUUGAGCAAUAUUACGCGAG, the “self-splicing fitness (ln)” value is -1.35 ± 0.18 (30 °C) and -0.457 ± 0.17 (37 °C).
GUUGAGCAAUAUUACGCUGA: the “self-splicing fitness (ln)” value reads like this: (30 °C) -3.9 ± 0.35; (37 °C) -2.61 ± 0.24.
GUUGAGCAAUAUUACGGCGC: the “self-splicing fitness (ln)” value (30 °C) is -0.744 ± 0.18 and the “self-splicing fitness (ln)” value (37 °C) is -0.21 ± 0.22.
The matching figures for GUUGAGCAAUAUUACGGCGU: -1.02 ± 0.13 and -0.302 ± 0.2.
For the sequence GUUGAGCAAUAUUACGGGUA, the “self-splicing fitness (ln)” value (30 °C) was -2.46 ± 0.26.
As to GUUGAGCAAUAUUACGGUGA, for the setting “37 °C”, the “self-splicing fitness (ln)” value is -2.78 ± 0.44.
As for GUUGAGCAAUAUUACGUAGC, the “self-splicing fitness (ln)” value (30 °C) is -0.983 ± 0.2 and the “self-splicing fitness (ln)” value (37 °C) is -2.07 ± 0.35.
The corresponding values for GUUGAGCAAUAUUACGUAGU are -2.05 ± 0.15 and -1.31 ± 0.18.
The matching figures for GUUGAGCAAUAUUACGUCUU: -1.53 ± 0.17 and -1.72 ± 0.2.
GUUGAGCAAUAUUACGUGCU: where the note is “30 °C”, the “self-splicing fitness (ln)” value was -1.95 ± 0.35.
Consider GUUGAGCAAUAUUACGUUAU, for which the “self-splicing fitness (ln)” value is, setting by setting: (30 °C) -3.37 ± 0.18; (37 °C) -0.445 ± 0.17.
Consider GUUUAGCAAUAUUACGAACU, for which, for the setting “37 °C”, the “self-splicing fitness (ln)” value was -2.69 ± 0.44.
Take GUUUAGCAAUAUUACGACGU: the “self-splicing fitness (ln)” value was -0.531 ± 0.1 (30 °C) and 0.347 ± 0.14 (37 °C).
The matching figures for GUUUAGCAAUAUUACGAGCG: -1.6 ± 0.12 and -0.465 ± 0.12.
